Results taken from PMC7212649, “An arrestin-1 surface opposite of its interface with photoactivated rhodopsin engages with enolase-1” (The Journal of Biological Chemistry, 2020).

B1: enolase-1 (bovine, unlabeled) (enzyme, UniProt Q9XSJ4 1-434, looked up)
chain: MSILKVHAREIFDSRGNPTVEVDLFTAKGLFRAAVPSGASTGIYEALELRDNDKTRYMGKGVSKAVEHINKTIAPALVSKKLNVVEQEKIDKLMIEMDGTENKSKFGANAILGVSLAVCKAGAVEKGVPLYRHIADLAGNAEVILPVPAFNVINGGSHAGNKLAMQEFMILPVGAENFREAMRIGAEVYHNLKNVIKEKYGKDATNVGDEGGFAPNILENKEALELLKNAIGKAGYSDKVVIGMDVAASEFYRSGKYDLDFKSPDDPSRYITPDELANLYKSFIRDYPVVSIEDPFDQDDWEAWQKFTASAGIQVVGDDLTVTNPKRIAKAVSEKSCNCLLLKVNQIGSVTESLQACKLAQSNGWGVMVSHRSGETEDTFIADLVVGLCTGQIKTVAPCRSERLAKYNQILRIEEELGSKAKFAGRSFRNPLAK
notes: enolase-1 (alpha-enolase), bovine; also called Eno1; source: prepared as arrestin-1 (Pichia pastoris, nickel-agarose)
B2: arrestin-1 E218C (C63A/C143A), mBBr-labeled (natural protein, bovine)
chain: KANKPAPNHVIFKKISRDKSVTIYLGKRDYIDHVERVEPVDGVVLVDPELVKGKRVYVSLTAAFRYGQEDIDVMGLSFRRDLYFSQVQVFPPVGASGATTRLQESLIKKLGANTYPFLLTFPDYLPCSVMLQPAPQDVGKSAGVDFEIKAFATHSTDVEEDKIPKKSSVRLLIRKVQHAPRDMGPQPRAEASWQFFMSDKPLRLAVSLSKEIYYHGCPIPVTVAVTNSTEKTVKKIKVLVEQVTNVVLYSSDYYIKTVAAEEAQEKVPPNSSLTKTLTLVPLLANNRERRGIALDGKIKHEDTNLASSTIIKEGIDKTVMGILVSYQIKVKLTVSGLLGELTSSEVATEVPFRLMHPQPEDPDTAKESFQDENFVFEEFARQNLKDAGEYKEEKTDQEAAMDE
modifications: monobromobimane (mBBr) on the introduced cysteine 218
notes: arrestin-1, bovine; also called E218C-mBBr; source: Pichia pastoris, purified (nickel-agarose)

How the values were obtained:
[1] = molecular target: arrestin-1 D362K (bovine) (UniProt P08168); test: co-IP; 5 μM arrestin-1 (or mutant) with 5 μM enolase-1–Alexa 546 in LAP200N, 2 h at 4 °C; captured by C10C10 anti-arrestin-1 mAb on Protein G magnetic beads for 16 h, 10 washes, eluted at pH 2.5; fluorescence of captured enolase-1 read
[2] = molecular target: arrestin-1 E361K (bovine) (UniProt P08168); test: as above
arrestin-1 R29E (bovine) = arrestin-1 R29E (bovine) (UniProt P08168); test: as above
[3] = molecular target: T1, arrestin-1 S210C (C63A/C143A), mBBr-labeled (bovine, UniProt P08168 2-404, C63A | C143A | S210C, monobromobimane (mBBr) on the introduced cysteine 210); test: fluorescence quench protection (KI quenching of mBBr); both in solution; 0.25 μM mBBr-labeled arrestin-1, 100 mM potassium iodide, with or without 5 μM enolase-1 (20-fold molar excess); emission at 470 nm; Pf = (F(A+E+K)−F(A+K))/(F(A)−F(A+K)); conditions: both partners purified
T1 construct: arrestin-1, bovine; source: Pichia pastoris, purified (nickel-agarose)

[4] = molecular target: T2, arrestin-1 R37C (C63A/C143A), mBBr-labeled (bovine, UniProt P08168 2-404, C63A | C143A | R37C, monobromobimane (mBBr) on the introduced cysteine 37); test: as above; conditions: both partners purified
T2 construct: arrestin-1, bovine; source: Pichia pastoris, purified (nickel-agarose)

[5] = molecular target: T3, arrestin-1 D183C (C63A/C143A), mBBr-labeled (bovine, UniProt P08168 2-404, C63A | C143A | D183C, monobromobimane (mBBr) on the introduced cysteine 183); test: as above; conditions: both partners purified
T3 construct: arrestin-1, bovine; source: Pichia pastoris, purified (nickel-agarose)

[6] = molecular target: T4, arrestin-1 K267C (C63A/C143A), mBBr-labeled (bovine, UniProt P08168 2-404, C63A | C143A | K267C, monobromobimane (mBBr) on the introduced cysteine 267); test: as above; conditions: both partners purified
T4 construct: arrestin-1, bovine; source: Pichia pastoris, purified (nickel-agarose)

[7] = molecular target: B2; test: as above; conditions: both partners purified
[8] = molecular target: T5, arrestin-1 K28C (C63A/C143A), mBBr-labeled (bovine, UniProt P08168 2-404, C63A | C143A | K28C, monobromobimane (mBBr) on the introduced cysteine 28); test: as above; conditions: both partners purified
T5 construct: arrestin-1, bovine; source: Pichia pastoris, purified (nickel-agarose)

[9] = molecular target: T6, arrestin-1 V281C (C63A/C143A), mBBr-labeled (bovine, UniProt P08168 2-404, C63A | C143A | V281C, monobromobimane (mBBr) on the introduced cysteine 281); test: as above; conditions: both partners purified
T6 construct: arrestin-1, bovine; source: Pichia pastoris, purified (nickel-agarose)

[10] = molecular target: T7, arrestin-1 R189C (C63A/C143A), mBBr-labeled (bovine, UniProt P08168 2-404, C63A | C143A | R189C, monobromobimane (mBBr) on the introduced cysteine 189); test: as above; conditions: both partners purified
T7 construct: arrestin-1, bovine; source: Pichia pastoris, purified (nickel-agarose)

[11] = molecular target: T8, arrestin-1 D362C (C63A/C143A), mBBr-labeled (bovine, UniProt P08168 2-404, C63A | C143A | D362C, monobromobimane (mBBr) on the introduced cysteine 362); test: as above; conditions: both partners purified
T8 construct: arrestin-1, bovine; source: Pichia pastoris, purified (nickel-agarose)

[12] = molecular target: T9, arrestin-1 E50C (C63A/C143A), mBBr-labeled (bovine, UniProt P08168 2-404, C63A | C143A | E50C, monobromobimane (mBBr) on the introduced cysteine 50); test: as above; conditions: both partners purified
T9 construct: arrestin-1, bovine; source: Pichia pastoris, purified (nickel-agarose)

[13] = molecular target: T10, arrestin-1 H10C (C63A/C143A), mBBr-labeled (bovine, UniProt P08168 2-404, C63A | C143A | H10C, monobromobimane (mBBr) on the introduced cysteine 10); test: as above; conditions: both partners purified
T10 construct: arrestin-1, bovine; source: Pichia pastoris, purified (nickel-agarose)

[14] = molecular target: T11, arrestin-1 K53C (C63A/C143A), mBBr-labeled (bovine, UniProt P08168 2-404, C63A | C143A | K53C, monobromobimane (mBBr) on the introduced cysteine 53); test: as above; conditions: both partners purified
T11 construct: arrestin-1, bovine; source: Pichia pastoris, purified (nickel-agarose)

[15] = molecular target: T12, arrestin-1 E302C (C63A/C143A), mBBr-labeled (bovine, UniProt P08168 2-404, C63A | C143A | E302C, monobromobimane (mBBr) on the introduced cysteine 302); test: as above; conditions: both partners purified
T12 construct: arrestin-1, bovine; source: Pichia pastoris, purified (nickel-agarose)

[16] = molecular target: T10, arrestin-1 H10C (C63A/C143A), …; test: fluorescence quench protection (KI quenching of mBBr); titration of the enolase-1 concentration against H10C-mBBr arrestin-1 to set the conditions; conditions: both partners purified
[17] = molecular target: B1; test: fluorescence quench protection (KI quenching of mBBr); E218C-mBBr arrestin-1 with enolase-1 in the presence of 5 μM pRho* (sonicated disc membranes, light for 1 min); conditions: both partners purified

enolase-1 labeled with Alexa Fluor 546 (from UniProt Q9XSJ4 1-434) (enzyme)
reduction of the pulldown against WT arrestin-1 [1]: 25%
reduction of the pulldown against WT arrestin-1 [2]: 25%
reduction of the pulldown against WT arrestin-1 (arrestin-1 R29E (bovine)): 25%

B1
Pf (quench protection factor) [3]: 0.618
Pf (quench protection factor) [4]: 0.564
Pf (quench protection factor) [5]: 0.787
Pf (quench protection factor) [6]: 0.484
Pf (quench protection factor) [7]: 1.08
Pf (quench protection factor) [8]: 0.732
Pf (quench protection factor) [9]: 0.269
Pf (quench protection factor) [10]: 0.467
Pf (quench protection factor) [11]: 1.2
Pf (quench protection factor) [12]: 0.297
Pf (quench protection factor) [13]: 0.792
Pf (quench protection factor) [14]: 0.314
Pf (quench protection factor) [15]: 0.772
quench protection at a 20-fold molar excess of enolase-1 [16]: 90%

B2
binding result [17]: binds
